Results reported in patent US20160297892A1 (Novo Nordisk, published 2016).
Each block holds one binder with its values, some of them ahead of it.

Legend:
[1] = target: T1, EGF1-4 domains of human Protein S with C-terminal HPC4 tag (human, UniProt P07225 114-286, partial hydroxylation of Asn or Asp in the EGF domains (detected by MS)); test: ELISA, recombinant antibody
T1 construct: also called hEGF1-4; human Protein S EGF1-4
T1 sequence: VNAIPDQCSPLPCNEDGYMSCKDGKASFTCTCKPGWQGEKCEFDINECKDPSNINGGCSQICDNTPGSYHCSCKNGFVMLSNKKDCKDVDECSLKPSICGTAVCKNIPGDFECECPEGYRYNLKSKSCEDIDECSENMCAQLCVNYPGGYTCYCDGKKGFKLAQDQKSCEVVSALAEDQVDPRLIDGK

[2] = target: T2, human Protein S (plasma derived) (human, UniProt P07225 42-676); test: ELISA, recombinant antibody
T2 construct: Bought plasma-derived human Protein S (Haematologic Technologies or Enzyme Research Laboratories); also called Plasma PS; free Protein S
T2 sequence: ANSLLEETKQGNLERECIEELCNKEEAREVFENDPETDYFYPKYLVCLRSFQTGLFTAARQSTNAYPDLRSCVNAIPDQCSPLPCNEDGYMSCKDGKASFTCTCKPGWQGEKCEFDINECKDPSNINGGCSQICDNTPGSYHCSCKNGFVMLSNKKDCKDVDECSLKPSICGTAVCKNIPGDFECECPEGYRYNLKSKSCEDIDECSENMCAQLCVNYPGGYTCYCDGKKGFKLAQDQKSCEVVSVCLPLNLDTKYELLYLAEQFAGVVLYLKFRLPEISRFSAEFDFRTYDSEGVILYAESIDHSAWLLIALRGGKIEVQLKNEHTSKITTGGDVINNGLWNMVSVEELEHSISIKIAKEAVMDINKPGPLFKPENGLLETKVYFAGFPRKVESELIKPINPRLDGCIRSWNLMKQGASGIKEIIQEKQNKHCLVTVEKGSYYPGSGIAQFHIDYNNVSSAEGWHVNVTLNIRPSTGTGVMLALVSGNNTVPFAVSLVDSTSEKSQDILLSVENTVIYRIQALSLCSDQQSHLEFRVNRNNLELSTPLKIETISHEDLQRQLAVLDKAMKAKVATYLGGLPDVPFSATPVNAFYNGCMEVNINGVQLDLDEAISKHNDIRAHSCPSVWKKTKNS

[3] = target: T3, EGF domain 1 and 2 of recombinant human Protein S (human, UniProt P07225 114-200, limits assumed); test: ELISA, recombinant antibody
T3 construct: domain: EGF domain 1 and 2; also called hEGF1-2
T3 sequence (looked up): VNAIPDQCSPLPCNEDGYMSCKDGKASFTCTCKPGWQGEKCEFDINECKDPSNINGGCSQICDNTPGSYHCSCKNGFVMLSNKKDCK

[4] = target: T4, Gla-domain deleted recombinant human Protein S (human, UniProt P07225 114-676); test: ELISA, recombinant antibody
T4 construct: also called hPS-dGla; desGla human Protein S
T4 sequence: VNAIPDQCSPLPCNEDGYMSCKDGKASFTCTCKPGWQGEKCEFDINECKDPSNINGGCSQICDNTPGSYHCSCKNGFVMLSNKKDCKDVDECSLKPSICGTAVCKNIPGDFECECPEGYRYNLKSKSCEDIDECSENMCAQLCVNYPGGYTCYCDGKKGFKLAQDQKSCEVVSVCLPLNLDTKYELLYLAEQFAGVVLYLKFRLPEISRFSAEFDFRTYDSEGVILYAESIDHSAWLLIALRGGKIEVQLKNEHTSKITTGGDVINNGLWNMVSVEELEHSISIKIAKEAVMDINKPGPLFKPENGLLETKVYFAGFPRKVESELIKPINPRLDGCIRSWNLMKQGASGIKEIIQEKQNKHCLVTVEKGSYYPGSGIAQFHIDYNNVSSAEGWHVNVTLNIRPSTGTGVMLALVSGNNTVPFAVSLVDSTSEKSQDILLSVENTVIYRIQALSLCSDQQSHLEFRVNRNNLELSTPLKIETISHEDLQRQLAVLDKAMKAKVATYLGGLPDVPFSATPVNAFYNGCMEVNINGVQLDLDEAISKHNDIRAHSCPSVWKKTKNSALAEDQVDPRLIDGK

[5] = target: T2, human Protein S (plasma derived); test: SPR; protein S binding to the full length antibody

binding result [1]: binds | binding result [2]: binds | binding result [3]: no binding | binding result [4]: binds
B1: M-hProtS-6F230A10 monoclonal antibody (antibody, mouse IgG1, V domains shown)
VH: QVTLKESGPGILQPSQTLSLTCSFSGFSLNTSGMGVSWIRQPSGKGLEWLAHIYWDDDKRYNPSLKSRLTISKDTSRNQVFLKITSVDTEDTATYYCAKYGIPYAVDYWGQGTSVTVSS
VL: QIVLTQSPAIMSASPGEKVTMTCSASSSVSYMYWYQQKPGSSPRLLIYDTSNLASGVPVRFSGSGSGTSYSLTISRMEAEDAATYYCQQWSSYPLTFGAGTKLELKR

Kd [5]: 20 nM
B2: 0322-0000-1069 (murine-human IgG4 chimer) (antibody, V domains shown)
VH: QVQLQQPGAELVRPGASVKLSCKASGYTFTSYWINWVKQRPEQGLEWIGRIDPYDSETHYNQKFKDKAILTVDKSSSTAYMQLSSLTSEDSAVYYCARWGGSGYAMDYWGQGTSVTVSS
VL: QIVLSQSPAILSASPGEKVTMTCRASSSVSYMYWYQQKPGSSPKPWIYATSNLASGVPARFSGSGSGTSYSLTISRVEAEDAATYYCQQWSSIPPTFGGGTKLEIKR
notes: Mouse variable domains on human IgG4(S241P) / human kappa constant regions
